From patent publication US20110038892A1 (priority 2009, published 2011)
No end group written: not given here. *: point of attachment. FITC = O=C1OC2(c3ccc(O)cc3Oc3cc(O)ccc32)c2ccc(NC(=S)*)cc21; Ahx = NCCCCCC(=O)O

Assays:
[1] = target: syntaxin1 (stx1) and SNAP25 (S25) (Rattus norvegicus, UniProt P32851+P60881)
SNARE assemblies = type: binding

Chain of S3S23 (O00161 whole entry): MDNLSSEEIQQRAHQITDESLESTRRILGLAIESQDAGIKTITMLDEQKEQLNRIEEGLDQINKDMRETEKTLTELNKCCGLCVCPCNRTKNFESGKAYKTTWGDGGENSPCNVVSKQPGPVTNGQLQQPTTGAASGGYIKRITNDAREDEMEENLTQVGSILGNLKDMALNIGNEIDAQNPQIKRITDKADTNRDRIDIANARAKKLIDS
Chain of S1S23 (O00161 whole entry): as above
Chain of syntaxin1 (stx1) and SNAP25 (S25) (P60881 whole entry): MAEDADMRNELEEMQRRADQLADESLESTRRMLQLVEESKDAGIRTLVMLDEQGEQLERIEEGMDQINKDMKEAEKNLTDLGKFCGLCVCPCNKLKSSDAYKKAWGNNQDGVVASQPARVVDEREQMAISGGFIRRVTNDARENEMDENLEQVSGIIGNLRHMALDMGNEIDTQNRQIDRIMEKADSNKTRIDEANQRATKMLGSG
Chain of syntaxin1 (stx1) and SNAP25 (S25) (P32851 whole entry): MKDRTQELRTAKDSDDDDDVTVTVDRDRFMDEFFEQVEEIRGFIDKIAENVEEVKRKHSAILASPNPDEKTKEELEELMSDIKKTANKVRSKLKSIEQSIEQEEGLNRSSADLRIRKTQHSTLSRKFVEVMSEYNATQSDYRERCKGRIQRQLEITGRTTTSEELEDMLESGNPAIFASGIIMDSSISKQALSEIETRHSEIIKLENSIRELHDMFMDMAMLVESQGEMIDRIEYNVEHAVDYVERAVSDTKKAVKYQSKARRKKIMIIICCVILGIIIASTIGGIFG

Molecule | formation of SDS-resistant complex [1] | interaction with SNARE assemblies (SNARE assemblies) | Tm (S3S25) [°C] | Tm (S1S25) [°C] | Tm (S3S23) [°C] | Tm (S1S23) [°C]
{FITC-Ahx}-DKVLERDQKLSELDDRADALQAGASQFETSAAKLA [35 amino acid synaptobrevin SNARE motif] | forms a complex but it ‘melts’ during gel-electrophoresis | – | – | – | – | –
Ac-ERKAKYAKMEAEREVMRQGIRDKYGIKKGSGSGGIKVAV-NH2 [29 amino acid complexin 1 peptide] | – | can interact with SNARE assemblies | – | – | – | –
synaptobrevin (VAMP2) | – | – | 59 | 71 | 61 | 65
{FITC-Ahx}-DIMRVNVDKVLERDQKLSELDDRADALQAGASQFETSAAKLA | still forms an SDS-resistant complex | – | – | – | – | –
VAMP4 (protein) VAMP4: PPKFKRHLNDDDVTGSVKSERRNLLEDDSDEEEDFFLRGPSGPRFGPRNDKIKHVQNQVDEVIDVMQENITKVIERGERLDELQDKSESLSDNATAFSNRSKQLRRQMWWRGCK | – | – | 53 | 60 | 57 | 60
VAMP5 (protein) VAMP5: AGKELKQCQQQADEVTEIMLNNFDKVLERHGKLAELEQRSDQLLDMSSAFSKTTKTLAQQKRWENIRCR | – | – | 42 | 53 | 52 | 55
VAMP7 (protein) VAMP7: AILFAVVARGTTILAKHAWCGGNFLEVTEQILAKIPSENNKLTYSHGNYLFHYICQDRIVYLCITDDDFERSRAFSFLNEVKKRFQTTYGSRAQTALPYAMNSEFSSVLAAQLKHHSENKSLDKVMETQAQVDELKGIMVRNIDLVAQRGERLELLIDKTENLVDSSVTFKTTSRNLARAMCMKNIK | – | – | 45 | 56 | 50 | 57
VAMP8 (protein) VAMP8: EEASGSAGNDRVRNLQSEVEGVKNIMTQNVERILSRGENLDHLRNKTEDLEATSEHFKTTSQKVARKFWWKNVK | – | – | 48 | 57 | 56 | 57
